Data from patent publication US20240309103A1.

Assays:
[1] = target: human NPR1 on HEK293/hNPR1.myc.DDK cells (0 hANP) (human) (UniProt P16066); assay: cell-based or functional assay
[2] = target: hNPR1-mFc:hANP or hNPR1-hFc:hANP complex (human) (UniProt P01160); assay: SPR, mAb captured, 25C
[3] = target: hNPR1-mFc:hBNP complex (human) (UniProt P16860); assay: SPR, mAb captured, 25C
mfNPR1-mFc (monkey) [4] = assay: SPR, mAb captured, 25C
[5] = target: mfNPR1-mFc:hANP complex (monkey; human) (UniProt P01160); assay: SPR, mAb captured, 25C
[6] = target: mfNPR1-mFc:hBNP complex (monkey; human) (UniProt P16860); assay: SPR, mAb captured, 25C
[7] = target: hNPR1-mFc:hANP or hNPR1-hFc:hANP complex (human) (UniProt P01160); assay: SPR, mAb captured, 37C
[8] = target: hNPR1-mFc:hBNP complex (human) (UniProt P16860); assay: SPR, mAb captured, 37C
mfNPR1-mFc (monkey) [9] = assay: SPR, mAb captured, 37C
[10] = target: mfNPR1-mFc:hANP complex (monkey; human) (UniProt P01160); assay: SPR, mAb captured, 37C
[11] = target: human NPR1 on HEK293/hNPR1.myc.DDK cells (0 hANP) (human) (UniProt P16066); assay: ECL cell binding (MSD), 0 hANP
mNPR1-mFc (mouse) [12] = assay: SPR Biacore, mAb captured by anti-human Fc, 25C
[13] = target: mNPR1-mFc:hANP complex (mouse; human) (UniProt P01160); assay: SPR Biacore, mAb captured by anti-human Fc, 25C
[14] = target: mNPR1-mFc:hBNP complex (mouse; human) (UniProt P16860); assay: SPR Biacore, mAb captured by anti-human Fc, 25C
mNPR1-mFc (mouse) [15] = assay: SPR Biacore, mAb captured by anti-human Fc, 37C
[16] = target: mNPR1-mFc:hANP complex (mouse; human) (UniProt P01160); assay: SPR Biacore, mAb captured by anti-human Fc, 37C
[17] = target: mNPR1-mFc:hBNP complex (mouse; human) (UniProt P16860); assay: SPR Biacore, mAb captured by anti-human Fc, 37C
[18] = target: mfNPR1-mFc:hBNP complex (monkey; human) (UniProt P16860); assay: SPR Biacore, mAb captured by anti-human Fc, 37C

Sequence of human NPR1 on HEK293/hNPR1.myc.DDK cells (0 hANP) (human) (P16066 33-1061): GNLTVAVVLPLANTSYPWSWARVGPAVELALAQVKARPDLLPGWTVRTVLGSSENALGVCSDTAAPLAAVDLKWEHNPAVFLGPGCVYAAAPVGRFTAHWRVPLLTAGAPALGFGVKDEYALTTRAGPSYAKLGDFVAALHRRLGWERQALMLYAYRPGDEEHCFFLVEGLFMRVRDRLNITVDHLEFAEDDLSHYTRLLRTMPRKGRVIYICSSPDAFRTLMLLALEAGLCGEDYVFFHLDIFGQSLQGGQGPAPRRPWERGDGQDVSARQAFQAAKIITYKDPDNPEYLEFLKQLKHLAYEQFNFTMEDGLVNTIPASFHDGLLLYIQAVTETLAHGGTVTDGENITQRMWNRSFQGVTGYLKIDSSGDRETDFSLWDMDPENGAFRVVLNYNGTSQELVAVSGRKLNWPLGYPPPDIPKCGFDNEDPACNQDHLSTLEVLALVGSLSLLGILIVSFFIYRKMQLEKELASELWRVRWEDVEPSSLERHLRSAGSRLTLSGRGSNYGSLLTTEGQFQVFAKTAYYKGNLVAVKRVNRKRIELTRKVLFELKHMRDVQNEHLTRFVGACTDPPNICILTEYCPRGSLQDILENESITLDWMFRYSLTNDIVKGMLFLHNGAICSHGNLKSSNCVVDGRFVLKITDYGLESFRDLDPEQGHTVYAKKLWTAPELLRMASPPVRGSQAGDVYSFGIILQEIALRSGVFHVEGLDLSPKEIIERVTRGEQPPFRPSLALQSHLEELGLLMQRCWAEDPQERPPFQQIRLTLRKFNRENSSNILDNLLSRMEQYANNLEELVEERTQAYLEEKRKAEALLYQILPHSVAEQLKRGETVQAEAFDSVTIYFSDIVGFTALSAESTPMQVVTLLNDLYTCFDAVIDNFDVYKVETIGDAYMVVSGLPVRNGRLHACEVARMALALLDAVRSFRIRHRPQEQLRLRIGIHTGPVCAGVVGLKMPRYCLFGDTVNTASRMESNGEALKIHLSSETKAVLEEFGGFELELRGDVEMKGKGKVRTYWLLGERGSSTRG
Sequence of mNPR1-mFc (mouse) (chain, as listed by the source limits assumed): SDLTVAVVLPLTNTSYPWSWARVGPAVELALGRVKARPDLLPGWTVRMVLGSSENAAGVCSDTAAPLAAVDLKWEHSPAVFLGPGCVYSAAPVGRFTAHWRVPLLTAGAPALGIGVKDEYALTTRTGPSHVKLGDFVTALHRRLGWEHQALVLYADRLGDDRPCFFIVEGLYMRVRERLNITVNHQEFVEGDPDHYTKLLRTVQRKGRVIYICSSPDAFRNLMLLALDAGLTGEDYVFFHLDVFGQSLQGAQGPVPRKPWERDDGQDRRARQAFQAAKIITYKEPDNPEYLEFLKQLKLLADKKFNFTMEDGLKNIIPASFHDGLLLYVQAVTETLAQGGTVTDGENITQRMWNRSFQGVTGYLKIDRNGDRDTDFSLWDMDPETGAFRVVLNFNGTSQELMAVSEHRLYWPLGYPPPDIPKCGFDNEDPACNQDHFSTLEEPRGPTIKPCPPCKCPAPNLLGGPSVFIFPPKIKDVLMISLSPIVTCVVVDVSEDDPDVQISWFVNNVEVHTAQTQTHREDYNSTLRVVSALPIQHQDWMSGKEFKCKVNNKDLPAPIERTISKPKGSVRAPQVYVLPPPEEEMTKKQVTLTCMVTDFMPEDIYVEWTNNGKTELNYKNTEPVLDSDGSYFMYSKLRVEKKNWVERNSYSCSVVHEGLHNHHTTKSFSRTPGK
Sequence of mfNPR1-mFc (monkey) (chain, as listed by the source limits assumed): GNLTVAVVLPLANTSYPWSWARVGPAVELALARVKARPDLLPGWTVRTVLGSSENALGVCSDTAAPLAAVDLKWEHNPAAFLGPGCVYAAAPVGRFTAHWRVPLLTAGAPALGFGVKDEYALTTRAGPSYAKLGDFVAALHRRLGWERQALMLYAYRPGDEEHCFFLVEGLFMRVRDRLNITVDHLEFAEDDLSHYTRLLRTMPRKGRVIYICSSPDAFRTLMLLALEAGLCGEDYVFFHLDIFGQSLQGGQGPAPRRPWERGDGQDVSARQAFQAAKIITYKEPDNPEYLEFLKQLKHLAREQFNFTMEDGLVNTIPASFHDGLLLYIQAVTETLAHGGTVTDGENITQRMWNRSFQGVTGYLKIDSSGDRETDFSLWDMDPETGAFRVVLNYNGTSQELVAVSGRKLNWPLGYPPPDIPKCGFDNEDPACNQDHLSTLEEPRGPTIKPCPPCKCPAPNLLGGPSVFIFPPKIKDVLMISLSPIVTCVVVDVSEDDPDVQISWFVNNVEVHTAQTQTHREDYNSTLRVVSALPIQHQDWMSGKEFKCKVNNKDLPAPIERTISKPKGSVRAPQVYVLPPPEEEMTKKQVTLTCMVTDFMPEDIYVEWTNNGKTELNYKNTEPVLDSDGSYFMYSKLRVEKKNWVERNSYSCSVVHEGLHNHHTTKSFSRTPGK

Row | EC50 (pM), ligand ANP, calcium flux activation, Expt II [1] | 100 nM Ag Bound (RU) [2] | 100 nM Ag Bound (RU) [3] | 100 nM Ag Bound (RU) (mfNPR1-mFc (monkey) [4]) | 100 nM Ag Bound (RU) [5] | 100 nM Ag Bound (RU) [6] | 100 nM Ag Bound (RU) [7] | 100 nM Ag Bound (RU) [8] | 100 nM Ag Bound (RU) (mfNPR1-mFc (monkey) [9]) | 100 nM Ag Bound (RU) [10] | % Activation (vs ANP max), Expt 1 [1] | % Activation (vs. ANP max), Expt II [1] | Ratio at 3.7 nM Ab concentration of Cell Binding Signal (RLU) to HEK293/hNPR1.myc.DKK relative to parental HEK293 [11] | 100 nM Ag Bound (RU) (mNPR1-mFc (mouse) [12]) | 100 nM Ag Bound (RU) [13] | 100 nM Ag Bound (RU) [14] | 100 nM Ag Bound (RU) (mNPR1-mFc (mouse) [15]) | 100 nM Ag Bound (RU) [16] | 100 nM Ag Bound (RU) [17] | 100 nM Ag Bound (RU) [18] | Substance
1 | 78.8 pM | – | – | – | – | – | – | – | – | – | – | – | – | – | – | – | – | – | – | – | ANP (from UniProt P01160 124-151) (ligand)
2 | – | -12 RU | -11 RU | 5 RU | 7 RU | 7 RU | -18 RU | -17 RU | 8 RU | 9 RU | -6.03% | 1.9% | 1 | 0 RU | 1 RU | 2 RU | 2 RU | 2 RU | 3 RU | 9 RU | IgG4 Isotype Control (antibody)
